Target: human von Willebrand factor (VWF) (human) (UniProt P04275)
Assay: SPR

Substance	Kd [nM]	koff [s⁻¹]	kon [M⁻¹ s⁻¹]
recombinant factor VIII–Fc fusion protein (rFVIIIFc) (from UniProt P00451 1668-2351)	0.34	0.00089	2.6e+06
recombinant B-domain-deleted FVIII (rBDD FVIII) (from UniProt P00451 1668-2351) (natural protein)	0.26	0.00087	3.4e+06
